According to publication PMC2822728 (Neuron, 2010):

Molecular target: the molecule itself
Assay: SDS-resistant dimers on SDS-PAGE

B1: HA-SynDIG1 (full-length mouse SynDIG1, N-terminal HA tag) (natural protein, UniProt A2ANU3 1-258, looked up)
chain: MDGIIEQKSVLVHSKISDAGKRNGLINTRNFMAESRDGLVSVYPAPQYQSHRLVASAAPGSLEGGRSEPVQQLLDPNTLQQSVESHYRPNIILYSDGVLRSWGDGVATDCCETTFIEDRSPTKDSLEYPDGKFIDLSGDDIKIHTLSYDVEEEEELQELESDYSSDTESEDNFLMMPPRDHLGLSVFSMLCCFWPLGIAAFYLSHETNKAVAKGDFHQASTSSRRALFLAVLSITIGTGIYVGVAVALIAYLSKNNHL
With B1 the “stoichiometry N” value was 2.
